In article PMC9396825:

T1: Pan1-FKBP (yeast Eps15-like protein Pan1p with a C-terminal FKBP tag) (yeast), P32521
T1 chain: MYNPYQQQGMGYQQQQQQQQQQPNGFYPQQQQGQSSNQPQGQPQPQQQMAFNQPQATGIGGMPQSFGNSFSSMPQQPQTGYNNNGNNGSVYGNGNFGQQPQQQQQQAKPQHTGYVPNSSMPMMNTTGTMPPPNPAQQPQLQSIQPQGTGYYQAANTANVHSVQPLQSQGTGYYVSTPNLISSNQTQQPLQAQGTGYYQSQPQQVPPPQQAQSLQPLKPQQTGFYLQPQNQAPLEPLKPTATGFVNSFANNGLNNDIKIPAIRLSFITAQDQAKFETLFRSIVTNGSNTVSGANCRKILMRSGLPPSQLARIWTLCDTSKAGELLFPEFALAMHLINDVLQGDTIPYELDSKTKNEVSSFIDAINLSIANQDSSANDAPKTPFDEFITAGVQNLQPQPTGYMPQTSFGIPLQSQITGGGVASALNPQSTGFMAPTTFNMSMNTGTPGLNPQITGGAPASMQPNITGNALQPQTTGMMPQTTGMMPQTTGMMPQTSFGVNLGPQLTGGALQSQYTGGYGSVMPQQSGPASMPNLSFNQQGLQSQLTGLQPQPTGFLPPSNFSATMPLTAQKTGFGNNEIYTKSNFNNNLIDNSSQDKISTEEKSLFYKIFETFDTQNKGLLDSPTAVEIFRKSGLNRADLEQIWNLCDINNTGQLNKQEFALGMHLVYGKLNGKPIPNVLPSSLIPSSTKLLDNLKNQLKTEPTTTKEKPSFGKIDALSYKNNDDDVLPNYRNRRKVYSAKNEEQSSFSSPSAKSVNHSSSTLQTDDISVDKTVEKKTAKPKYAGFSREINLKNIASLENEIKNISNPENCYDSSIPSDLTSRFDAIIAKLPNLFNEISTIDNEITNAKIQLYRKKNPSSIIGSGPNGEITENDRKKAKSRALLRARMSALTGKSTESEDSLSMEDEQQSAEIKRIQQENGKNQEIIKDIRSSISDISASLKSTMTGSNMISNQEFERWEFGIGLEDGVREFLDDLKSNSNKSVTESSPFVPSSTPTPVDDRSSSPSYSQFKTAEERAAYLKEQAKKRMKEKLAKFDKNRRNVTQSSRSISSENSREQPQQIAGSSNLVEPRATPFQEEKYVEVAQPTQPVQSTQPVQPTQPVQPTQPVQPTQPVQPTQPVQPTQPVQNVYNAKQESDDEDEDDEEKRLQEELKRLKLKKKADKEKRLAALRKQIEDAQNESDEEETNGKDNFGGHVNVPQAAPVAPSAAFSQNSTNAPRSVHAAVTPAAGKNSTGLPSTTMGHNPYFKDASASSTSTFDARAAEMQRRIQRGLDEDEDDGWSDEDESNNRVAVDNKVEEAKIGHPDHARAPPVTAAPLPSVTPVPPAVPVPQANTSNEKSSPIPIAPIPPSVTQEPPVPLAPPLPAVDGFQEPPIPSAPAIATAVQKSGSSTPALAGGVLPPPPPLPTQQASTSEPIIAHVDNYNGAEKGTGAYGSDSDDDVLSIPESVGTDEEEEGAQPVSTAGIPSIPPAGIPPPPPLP


Experiments:
[1] = biological target: Pan1-FKBP (yeast Eps15-like protein Pan1p with a C-terminal FKBP tag) (yeast) (UniProt P32521); experiment: inducible peroxisome redistribution assay
[2] = biological target: T1, Pan1-FKBP (yeast Eps15-like protein …); experiment: inducible peroxisome redistribution assay; conditions: remark: other sources report otherwise

Molecule | percent localized to the peroxisome [1] [%] | percent localized to the peroxisome [2] [%]
Ent1-GFP (from UniProt Q12518 1-454) (natural protein) | 64 | 
GFP-fused Sla2p (from UniProt P33338 1-968) (natural protein) | 72 | 
GFP-tagged Ent2p (from UniProt Q05785 1-613) (natural protein) | 66.7 | 
Sla1-GFP, P32790 1-1244 (natural protein) MTVFLGIYRAVYAYEPQTPEELAIQEDDLLYLLQKSDIDDWWTVKKRVIGSDSEEPVGLVPSTYIEEAPVLKKVRAIYDYEQVQNADEELTFHENDVFDVFDDKDADWLLVKSTVSNEFGFIPGNYVEPENGSTSKQEQAPAAAEAPAATPAAAPASAAVLPTNFLPPPQHNDRARMMQSKEDQAPDEDEEGPPPAMPARPTATTETTDATAAAVRSRTRLSYSDNDNDDEEDDYYYNSNSNNVGNHEYNTEYHSWNVTEIEGRKKKKAKLSIGNNKINFIPQKGTPHEWSIDKLVSYDNEKKHMFLEFVDPYRSLELHTGNTTTCEEIMNIIGEYKGASRDPGLREVEMASKSKKRGIVQYDFMAESQDELTIKSGDKVYILDDKKSKDWWMCQLVDSGKSGLVPAQFIEPVRDKKHTESTASGIIKSIKKNFTKSPSRSRSRSRSKSNANASWKDDELQNDVVGSAAGKRSRKSSLSSHKKNSSATKDFPNPKKSRLWVDRSGTFKVDAEFIGCAKGKIHLHKANGVKIAVAADKLSNEDLAYVEKITGFSLEKFKANDGSSSRGTDSRDSERERRRRLKEQEEKERDRRLKERELYELKKARELLDEERSRLQEKELPPIKPPRPTSTTSVPNTTSVPPAESSNNNNSSNKYDWFEFFLNCGVDVSNCQRYTINFDREQLTEDMMPDINNSMLRTLGLREGDIVRVMKHLDKKFGRENIASIPTNATGNMFSQPDGSLNVATSPETSLPQQLLPQTTSPAQTAPSTSAETDDAWTVKPASKSESNLLSKKSEFTGSMQDLLDLQPLEPKKAAASTPEPNLKDLEPVKTGGTTVPAAPVSSAPVSSAPAPLDPFKTGGNNILPLSTGFVMMPMITGGDMLPMQRTGGFVVPQTTFGMQSQVTGGILPVQKTGNGLIPISNTGGAMMPQTTFGAAATVLPLQKTGGGLIPIATTGGAQFPQTSFNVQGQQQLPTGSILPVQKTANGLISANTGVSMPTVQRTGGTMIPQTSFGVSQQLTGGAMMTQPQNTGSAMMPQTSFNAVPQITGGAMMPQTSFNALPQVTGGAMMPLQRTGGALNTFNTGGAMIPQTSFSSQAQNTGGFRPQSQFGLTLQKTGGIAPLNQNQFTGGAMNTLSTGGVLQQQQPQTMNTFNTGGVMQELQMMTTFNTGGAMQQPQMMNTFNTDGIMQQPQMMNTFNTGGAMQQPQQQALQNQPTGFGFGNGPQQSRQANIFNATASNPFGF |  | 63.3
